Measurements from the supplement of paper PMC9170038.

Tested on: MS2 coat protein
Assay: apparent KD of MS2 coat protein; higher = weaker reporter binding
Settings: Eterna round: R107
How it was run: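 Apparent KD is reported per design as the median of normalised binding-curve fits across its clusters. The RNA switches were made by on-chip transcription from Illumina sequencing clusters. SNAP-549-labelled MS2 coat protein was then added in twofold steps (0.7 or 1.5 nM to 3 µM; 0.8–1.5 h to 10–20 min per step) in 100 mM Tris-HCl pH 7.5, 80 mM KCl, 4 mM MgCl2, without or with constant ligand.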

[1] = input ligand: theophylline 20 uM
[2] = input ligand: tryptophan 2.4 mM
[3] = input ligand: theophylline 2 mM

Sequence	apparent KD of MS2 coat protein (input ligand: arginine 13.2 mM)	apparent KD of MS2 coat protein [1]	apparent KD of MS2 coat protein [2]	apparent KD of MS2 coat protein [3]	apparent KD of MS2 coat protein (input ligand: none)
GGUGGUGGGACGGAUACCAGCCACCGCGGCAACGCAACAUGAGGAUCACCCAUGUUGGGUGGCCCUUGGCAGCUGUCCUGCGGCG [#1 Same State - Theophylline B Attempt #25 (HarryS)]	12.6 nM	18.5 nM	12.7 nM	–	–
GGUGGUGUGACGGAUACCAGCCACCGCGGCAACGCAACAUGAGGAUCACCCAUGUUGGGUGGCCCUUGGCAGCUGUCGUGCGGCG [#1 Same State - Theophylline B Attempt #24 (HarryS)]	40.1 nM	91.2 nM	53.9 nM	–	–
GGUGUAAUUGACUCUUUGUUUUAUUUGUAACGAGGACCGGUACGGCCGCCACUCGAUAUUCACAUGAGGAUCACCCAUGUUAGCU [JR_ExcTryptoA_Sub006]	19.1 nM	22.5 nM	–	24.3 nM	–
GGUUACUCUACGGCCGCCACUGAACAUGAGGAUCACCCAUGUAAUGUUCAGACGUCUUUAGACGACAGGACCGGGUAGUGUAACC [Tryptophan B 5]	119 nM	208 nM	–	232 nM	–
GGUUACUCUACGGCCGCCACUGUAAAGUAAAGAUACCUGUACAUGACAUGAGGAUCACCCAUGUACAGGACCGGGUAGUGUAACC [Tryptophan B 16]	133 nM	636 nM	–	804 nM	–
GGUUACUCUACGGCCGCCACUGUCAUGUAAAGAUACCUGUACAUGACAUGAGGAUCACCCAUGUGCAGGACCGGGUAGUGUAACC [Tryptophan B 18]	91.3 nM	177 nM	–	201 nM	–
GGUUCCUCAACGGCCGCCACUUACUGGAUUAGUGGACCUACUUGCAACAUGAGGAUCACCCAUGUAAGGACCGGGUUGCUCCCAA [theeternabot_exclusion_MS2_Trp_B_34]	46.9 nM	90.1 nM	–	87.9 nM	–
GGUUGGUCCUCACAUGAGGAUCACCCAUGUCGAGGACCGGUACGGCCGCCACUCGAUUGUACCAGGGCUUAAGAGCCUAUGAGCA [Erenedquce]	12.6 nM	23.9 nM	–	17.6 nM	–
GGUUGGUGUAUAUAUAUAUUGAUUACUGAAGGAGCGGGAAAUAACCCAGGUAGGUCGCAGAGAUCCACAUGAGGAUCACCCAUGU [!0.J]	31 nM	50.2 nM	38.9 nM	51 nM	53.7 nM
GGUUUCGCGGGCGAUACCAGCUUGAUCGUACUGGCCUGGUACAUGAGGAUCACCCAUGUAAGCCCUUGGCAGCGCGCGCGAGACC [#1 Exclusion - Theophylline B Attempt #4 (HarryS)]	13.3 nM	16.9 nM	11.7 nM	–	–
GUAAAUUAUAGAAGGAGCGUCGAAAAUGGGUAAACAUGAGGAUCACCCAUGUAAAGGGAACGACAGGUAGGUCGCUAUAAUUUAC [AstromonsSSArgB#15]	116 nM	190 nM	167 nM	259 nM	170 nM
GUACACUAGUCGGCCGCCACUGUUACAUGAGGAUCACCCAUGUAGGAUCACCCAUGACAUGAGGAUAGGACCGGGACGCAUGAGG [Exclusion Tryptophan B]	56.8 nM	56.1 nM	–	69 nM	–
GUACAUGAGGAUCACCCAUGUAUAGUUGAAGGAGCGACCAGAGGGUCAGGUAGGUCGCAGCACAUGAGGUAAGGCCGUGUAUGCU [#1 Exclusion - Arginine A Attempt #20 (Inspired by Pi)]	17.2 nM	23.9 nM	16.8 nM	21.7 nM	15.2 nM
GUAGCGACGACGGCCGCCACUCACACGAGAGGGUAGACCAACCUUCACAUGAGGAUCACCCAUGUGAGGACCGGGUUGUCGGUAC [Exclusion - Tryptophan B]	20 nM	26.6 nM	–	33 nM	–
GUCACCAGGAGAAGGAGCGUGAAGACAUGAGGAUCACCCAUGUAGAGGCGCCGACGGCGUUCGCAGGUAGGUCGCUCCUGGUGAC [#1 Same State - Arginine B Attempt #17 (HarryS)]	22 nM	35.2 nM	20.4 nM	26.6 nM	20.5 nM
GUCAGUGACAGAAGGAGCGACAUGAGGAUCACCCAUGUCUCCCGUUAUGGGAGUUCCUUAGGUCAGGUAGGUCGCUGUCACUGAC [#1 Exclusion - Arginine B Attempt #30 (Inspired by Omei)]	227 nM	137 nM	194 nM	284 nM	215 nM
